The values that follow come from patent US20230374147A1 (HUMMINGBIRD BIOSCIENCE PTE, published 2023).

In experiment [1] the target is T1, His-tagged human BCMA (Acro Biosystems, Cat. #BCA-H522y) (human, UniProt Q02223 1-54).
T1 construct: also called huBCMA; P1; not shown: His tag
T1 sequence: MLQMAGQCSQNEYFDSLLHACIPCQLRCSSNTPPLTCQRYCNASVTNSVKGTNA
Kind of experiment: ELISA, coated His-tagged human BCMA.

Experiment [2] deals with T2, Human HER3-His (Sino Biological, 10201-H08H) (human, UniProt P21860 20-643).
T2 construct: Specificity control; also called Human HERS-His
Kind of experiment: ELISA, coated Human HER3-His.

The target in a further experiment is T3, BCMA Mut (human, UniProt Q02223 1-184).
T3 construct: Expressed on HEK293T cells; also called human BCMA comprising the substitutions Y13A, D15A, L17G and L18G
T3 chain: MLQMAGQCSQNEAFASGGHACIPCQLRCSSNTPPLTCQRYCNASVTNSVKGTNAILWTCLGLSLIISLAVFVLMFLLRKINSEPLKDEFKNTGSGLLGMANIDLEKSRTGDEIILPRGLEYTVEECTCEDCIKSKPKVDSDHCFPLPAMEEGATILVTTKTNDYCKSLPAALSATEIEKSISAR
Kind of experiment: flow cytometry on HEK293T cells expressing BCMA Mut.

Experiment [3] deals with T1, His-tagged human BCMA (Acro Biosystems, …). Briefly: ELISA, reference antibody, coated His-tagged antigen.
In experiment [4] the target is T4, His-tagged cynomolgous macaque BCMA (Acro Biosystems, BCA-C52H7) (cynomolgus macaque, UniProt Q02223 1-54 (human entry)).
T4 construct: Bought protein; also called cyno BCMA; CyBCMA; not shown: His tag
Briefly: BLI, His-tagged cynomolgus BCMA on HIS1K tip; R2 0.9963.

The target of experiment [5] is T5, recombinant his-tagged human TACI (Sinobiological cat #11937-H08H) (human, UniProt O14836 1-165).
T5 construct: Bought protein; also called Human TACI-His; huTACI; not shown: His tag
T5 sequence: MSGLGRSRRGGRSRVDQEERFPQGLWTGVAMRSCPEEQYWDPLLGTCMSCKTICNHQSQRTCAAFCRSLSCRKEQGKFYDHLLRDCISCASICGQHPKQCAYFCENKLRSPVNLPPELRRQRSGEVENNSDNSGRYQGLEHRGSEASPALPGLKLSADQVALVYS
Kind of experiment: ELISA, coated His-tagged human TACI.

In experiment [6] the target is T6, Human BCMA-His (Sino Biological, 10620-H08H) (human, UniProt Q02223 1-54).
T6 construct: not shown: His tag
T6 sequence: T1 sequence
Kind of experiment: ELISA, coated Human BCMA-His.

For experiment [7], the target named is T7, human TACI expressed on cells (human, UniProt O14836 1-293).
T7 construct: also called wildtype human TACI
T7 sequence: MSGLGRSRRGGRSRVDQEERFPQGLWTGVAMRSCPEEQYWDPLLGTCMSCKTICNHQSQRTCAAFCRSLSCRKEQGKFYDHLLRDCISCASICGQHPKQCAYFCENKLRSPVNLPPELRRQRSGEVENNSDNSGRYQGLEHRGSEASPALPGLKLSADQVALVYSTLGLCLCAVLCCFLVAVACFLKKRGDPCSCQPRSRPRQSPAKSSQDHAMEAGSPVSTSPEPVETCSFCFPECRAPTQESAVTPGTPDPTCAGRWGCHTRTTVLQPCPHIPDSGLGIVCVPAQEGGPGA
Kind of experiment: flow cytometry, HEK 293 cells transiently expressing human TACI.

For experiment [8], the target named is T8, human BCMA expressed on cells (human, UniProt Q02223 1-184).
T8 construct: the cell line is named under assay; also called wildtype human BCMA
T8 sequence: T3 chain with A13Y, A15D, G17L, G18L
Kind of experiment: flow cytometry, H929 cells (BCMA+).

Experiment [9] addresses T1, His-tagged human BCMA (Acro Biosystems, …). Briefly: BLI, His-tagged human BCMA on HIS1K tip, no APRIL; R2 0.9957.
The target is the same in experiment [10]. Kind of experiment: BLI, His-tagged human BCMA on HIS1K tip.
Experiment [11] deals with T9, His-tagged mouse BCMA (Acro Biosystems, BCA-M52H3) (mouse, UniProt O88472 1-49).
T9 construct: Bought protein; not shown: His tag
T9 chain: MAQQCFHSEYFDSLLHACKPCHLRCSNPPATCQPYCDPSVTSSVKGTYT
Briefly: BLI, His-tagged mouse BCMA on HIS1K tip.

Experiment [12] addresses T4, His-tagged cynomolgous macaque BCMA …. Briefly: ELISA, coated Cyno BCMA-His.
Experiment [13] shares this target. Briefly: BLI, His-tagged cynomolgus BCMA on HIS1K tip.
The target of experiment [14] is T1, His-tagged human BCMA (Acro Biosystems, …). Kind of experiment: competition ELISA: His-tagged human BCMA binding to coated APRIL-Fc in the presence of the antibody.
Experiment [15] addresses T10, Cyno TACI-His (Sino Biological, 90976-C08H) (cynomolgus macaque, UniProt G7PTR7 1-165).
T10 construct: Bought protein; also called cynomolgous macaque TACI; CyTACI
T10 sequence: T5 sequence with F21S, T52A, A64T, S70N, K77R, L139S, V160L
Kind of experiment: ELISA, coated Cyno TACI-His.

Where a chain is given by its changes, count along the chain named.

B1: J6M0 (antibody, V domains shown)
VH: QVQLVQSGAEVKKPGSSVKVSCKASGGTFSNYWMHWVRQAPGQGLEWMGATYRGHSDTYYNQKFKGRVTITADKSTSTAYMELSSLRSEDTAVYYCARGAIYDGYDVLDNWGQGTLVTVSS
VL: DIQMTQSPSSLSASVGDRVTITCSASQDISNYLNWYQQKPGKAPKLLIYYTSNLHSGVPSRFSGSGSGTDFTLTISSLQPEDFATYYCQQYRKLPWTFGQGTKLEIK
notes: also called J6M0-hIgG1; anti-BCMA
Turning to B1, the EC50 in experiment [1] is 0.044 nM; in [3], 0.0126 µg/mL; in experiment [6], 0.018 nM; in [8], 1.77 nM; in experiment [12], 0.015 nM. Also, the binding result is “no binding (tested: log M about -7.7 (3 ug/ml per paragraph 742))” in experiment [2]; “binds” with BCMA Mut; “no binding (tested: 10 ug/ml)” in [5]; “no binding (tested: 10 ug/ml)” in experiment [7]; “no binding (tested: log M about -7.7 (3 ug/ml per paragraph 742))” in [15]. Also, the equilibrium dissociation constant (Kd) in experiment [4] and in experiment [9] was under 0.001 nM throughout. In addition, the “Human BCMA response” value in experiment [10] is 2.53. In addition, the “Mouse BCMA response” value in experiment [11] was 0.0423. In addition, the “Cyno BCMA response” value in experiment [13] came out at 2.16. Also, the “IC50 (read off the curve)” value in experiment [14] was about 0.5 µg/mL.
